Test results as given in patent publication US11351268B2, “FGF21 C-terminal peptide optimization” (INDIANA UNIVERSITY RESEARCH AND TECHNOLOGY CORPORATION, priority 2016, dated 2022).

Each molecule was assayed on FGF21 receptor (assay: Erk1/2 phosphorylation assay: agonist activity in 293T HEK hKLB cells). Conditions: FIGS. 9A/9B, full length proteins, Erk1/2 phosphorylation.
Type: cell-based, human
Procedure: Cells were cultured in 10% Fetal Bovine Serum containing DMEM High glucose GLUTAMAX® at 37 C, 95% humidity, 5% CO2. For generating the cell line with stable expression, human KLB gene was synthesized by Genscript and subcloned into pcDNA3.1(+) with ZEOCIN® resistance vector (INVITROGEN®) by NheI and NotI restriction enzyme sites. HEK 293T cells were obtained from ATCC and were transiently transfected at 80% confluency using Lipofectamine 3000 (Invitrogen). Selection for KLB-expressing cells was initiated 48 hours post-transfection in the growth media containing 100 μg/ml of ZEOCIN® (Gibco) and continued for 4 weeks with fresh media added every third day. Human KLB expression in pooled cells was confirmed by Western blot and a functional FGF21 MAPK phosphorylation assay.
293 HEK cells expressing hKLB were plated to 90% confluency in 96 well plates coated with poly-D-Lysine. Cells were serum starved for three hours in 0.1% BSA containing media prior to stimulation with protein and/or an antagonist peptide for ten minutes at 37° C. The cell lysate was used for the detection of phospho-Erk1/2 levels by AlphaSureFire kit using the prescribed protocol. The degree of biochemical activation was recorded and analyzed using Origin software by logistic curve fitting. Tests at each concentration were done in triplicates, and the standard deviation is as shown in the graphs. The calculation of maximal activities was done keeping the FGF21 157-181 or FGF19 169-194 peptide activity as standard. The difference between the Erk1/2 phosphorylation signal for the highest (10 μM) and the lowest (0 μM) tested dose for native peptide was considered as 100% and accordingly all the other values were assigned.

Sequence of FGF21 receptor (Q86Z14 whole entry): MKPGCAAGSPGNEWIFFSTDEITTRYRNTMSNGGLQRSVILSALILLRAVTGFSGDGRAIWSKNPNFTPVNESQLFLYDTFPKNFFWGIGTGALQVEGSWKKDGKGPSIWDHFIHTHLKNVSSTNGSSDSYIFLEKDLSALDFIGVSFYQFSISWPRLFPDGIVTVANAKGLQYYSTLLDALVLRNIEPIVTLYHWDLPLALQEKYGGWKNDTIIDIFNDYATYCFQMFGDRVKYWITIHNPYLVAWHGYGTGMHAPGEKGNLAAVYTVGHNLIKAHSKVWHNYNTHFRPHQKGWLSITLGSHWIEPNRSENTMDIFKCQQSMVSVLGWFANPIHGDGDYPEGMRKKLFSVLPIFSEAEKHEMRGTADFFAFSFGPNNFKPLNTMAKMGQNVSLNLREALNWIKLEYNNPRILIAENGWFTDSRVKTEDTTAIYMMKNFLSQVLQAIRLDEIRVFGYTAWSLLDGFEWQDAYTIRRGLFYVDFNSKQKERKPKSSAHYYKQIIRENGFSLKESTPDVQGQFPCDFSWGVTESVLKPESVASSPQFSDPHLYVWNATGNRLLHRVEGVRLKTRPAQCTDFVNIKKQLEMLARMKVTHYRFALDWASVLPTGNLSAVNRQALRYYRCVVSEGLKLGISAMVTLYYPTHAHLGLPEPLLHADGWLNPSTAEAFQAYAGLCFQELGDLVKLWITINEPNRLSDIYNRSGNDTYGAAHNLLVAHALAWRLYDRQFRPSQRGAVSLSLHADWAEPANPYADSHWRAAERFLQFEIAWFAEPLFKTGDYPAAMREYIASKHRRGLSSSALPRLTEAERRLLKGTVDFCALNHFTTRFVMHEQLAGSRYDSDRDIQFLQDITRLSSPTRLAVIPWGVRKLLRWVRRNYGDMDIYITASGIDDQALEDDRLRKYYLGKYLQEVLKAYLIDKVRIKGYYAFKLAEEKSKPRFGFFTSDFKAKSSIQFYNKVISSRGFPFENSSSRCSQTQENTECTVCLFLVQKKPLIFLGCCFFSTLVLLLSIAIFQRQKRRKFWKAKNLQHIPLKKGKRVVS

Row | Molecule | % maximal activity [%]
1 | FGF21-19 K194A: chimeric analog: core of FGF21 1-156 and an extension of the FGF19 169-194 K194A peptide (protein) HPIPDSSPLLQFGGQVRQRYLYTDDAQQTEAHLEIREDGTVGGAADQSPESLLQLKALKPGVIQILGVKTSRFLCQRPDGALYGSLHFDPEACSFRELLLEDGYNVYQSEAHGLPLHLPGNKSPHRDPAPRGPARFLPLPGLPPALPEPPGILAPQPLETDSMDPFGLVTGLEAVRSPSFEA | 84

Same assay, conditions: FIGS. 9A/9B, full length proteins, Erk1/2 phosphorylation; read-out: EC-50

Row | EC50 [nM] | Molecule
2 | 0.5 | FGF21-19 K194A: chimeric analog: core of FGF21 1-156 and an extension of the FGF19 169-194 K194A peptide (protein) HPIPDSSPLLQFGGQVRQRYLYTDDAQQTEAHLEIREDGTVGGAADQSPESLLQLKALKPGVIQILGVKTSRFLCQRPDGALYGSLHFDPEACSFRELLLEDGYNVYQSEAHGLPLHLPGNKSPHRDPAPRGPARFLPLPGLPPALPEPPGILAPQPLETDSMDPFGLVTGLEAVRSPSFEA
3 | 4.5 | FGF21 P171A: full length FGF21 with alanine at position 171 (protein) HPIPDSSPLLQFGGQVRQRYLYTDDAQQTEAHLEIREDGTVGGAADQSPESLLQLKALKPGVIQILGVKTSRFLCQRPDGALYGSLHFDPEACSFRELLLEDGYNVYQSEAHGLPLHLPGNKSPHRDPAPRGPARFLPLPGLPPALPEPPGILAPQPPDVGSSDPLSMVGASQGRSPSYAS

Same assay, conditions: agonist activity of chimeric analog

Row | Molecule | fold more potent than native FGF21
4 | FGF21-19 K194A: chimeric analog: core of FGF21 1-156 and an extension of the FGF19 169-194 K194A peptide (protein) HPIPDSSPLLQFGGQVRQRYLYTDDAQQTEAHLEIREDGTVGGAADQSPESLLQLKALKPGVIQILGVKTSRFLCQRPDGALYGSLHFDPEACSFRELLLEDGYNVYQSEAHGLPLHLPGNKSPHRDPAPRGPARFLPLPGLPPALPEPPGILAPQPLETDSMDPFGLVTGLEAVRSPSFEA | approximately 5 fold

Same assay, conditions: full length FGF21 analogs, tested in triplicate

Row | Molecule | IC50 [nM]
5 | FGF21 481K: analog of FGF21 481A where the C-terminal alanine is replaced with a lysine (protein) HPIPDSSPLLQFGGQVRQRYLYTDDAQQTECHLEIREDGTVGCAADQSPESLLQLKALKPGVIQILGVKTSRFLCQRPDGALYGSLHFDPEACSFREDLKEDGYNVYQSEAHGLPLHLPGDKSPHRKPAPRGPARFLPLPGLPPALPEPPGILAPQPPDVLSMDPFGLVGPSQGRSPSFEK | 0.56 ± 0.06
6 | FGF21 486K: analog of FGF21 486A where the C-terminal alanine is replaced with a lysine (protein) HPIPDSSPLLQFGGQVRQRYLYTDDAQQTECHLEIREDGTVGCAADQSPESLLQLKALKPGVIQILGVKTSRFLCQRPDGALYGSLHFDPEACSFREDLKEDGYNVYQSEAHGLPLHLPGDKSPHRKPAPRGPARFLPLPGLPPALPEPPGILAPQPPDVGSSDPFGLVGPSQGRSPSFEK | 3.16 ± 0.56
7 | FGF21 470K: analog of FGF21 470A where the C-terminal alanine is replaced with a lysine (protein) HPIPDSSPLLQFGGQVRQRYLYTDDAQQTECHLEIREDGTVGCAADQSPESLLQLKALKPGVIQILGVKTSRFLCQRPDGALYGSLHFDPEACSFREDLKEDGYNVYQSEAHGLPLHLPGDKSPHRKPAPRGPARFLPLPGLPPALPEPPGILAPQPPDVGSMDPFGLVGRSQGRSPSFEK | 6.14 ± 1.93
8 | FGF21 480K: analog of FGF21 480A where the C-terminal alanine is replaced with a lysine (protein) HPIPDSSPLLQFGGQVRQRYLYTDDAQQTECHLEIREDGTVGCAADQSPESLLQLKALKPGVIQILGVKTSRFLCQRPDGALYGSLHFDPEACSFREDLKEDGYNVYQSEAHGLPLHLPGDKSPHRKPAPRGPARFLPLPGLPPALPEPPGILAPQPPDVFSMDPFGLVGPSQGRSPSFEK | 1.62 ± 0.54
9 | FGF21 482K: analog of FGF21 482A where the C-terminal alanine is replaced with a lysine (protein) HPIPDSSPLLQFGGQVRQRYLYTDDAQQTECHLEIREDGTVGCAADQSPESLLQLKALKPGVIQILGVKTSRFLCQRPDGALYGSLHFDPEACSFREDLKEDGYNVYQSEAHGLPLHLPGDKSPHRKPAPRGPARFLPLPGLPPALPEPPGILAPQPPDVSSMDPFGLVGPSQGRSPSFEK | 1.81 ± 0.18
10 | FGF21 431K: analog of FGF21 431A where the C-terminal alanine is replaced with a lysine (protein) HPIPDSSPLLQFGGQVRQRYLYTDDAQQTECHLEIREDGTVGCAADQSPESLLQLKALKPGVIQILGVKTSRFLCQRPDGALYGSLHFDPEACSFREDLKEDGYNVYQSEAHGLPLHLPGDKSPHRKPAPRGPARFLPLPGLPPALPEPPGILAPQPPDVGSMDPFGLVGPSQGRSPSFEK | 4.3 ± 0.07
11 | FGF21 470A: modified FGF21 N-terminus fused to peptide 0470 (protein, listed as Homo sapiens) HPIPDSSPLLQFGGQVRQRYLYTDDAQQTECHLEIREDGTVGCAADQSPESLLQLKALKPGVIQILGVKTSRFLCQRPDGALYGSLHFDPEACSFREDLKEDGYNVYQSEAHGLPLHLPGDKSPHRKPAPRGPARFLPLPGLPPALPEPPGILAPQPPDVGSMDPFGLVGRSQGRSPSFEA | 0.61 ± 0.06

Other lines, results leading:

Row | IC50 [nM] | Molecule
12 | 0.43 ± 0.04 | FGF21 480A: modified FGF21 N-terminus fused to peptide 0480 (protein, listed as Homo sapiens) HPIPDSSPLLQFGGQVRQRYLYTDDAQQTECHLEIREDGTVGCAADQSPESLLQLKALKPGVIQILGVKTSRFLCQRPDGALYGSLHFDPEACSFREDLKEDGYNVYQSEAHGLPLHLPGDKSPHRKPAPRGPARFLPLPGLPPALPEPPGILAPQPPDVFSMDPFGLVGPSQGRSPSFEA
13 | 0.22 ± 0.03 | FGF21 482A: modified FGF21 N-terminus fused to peptide 0482 (protein, listed as Homo sapiens) HPIPDSSPLLQFGGQVRQRYLYTDDAQQTECHLEIREDGTVGCAADQSPESLLQLKALKPGVIQILGVKTSRFLCQRPDGALYGSLHFDPEACSFREDLKEDGYNVYQSEAHGLPLHLPGDKSPHRKPAPRGPARFLPLPGLPPALPEPPGILAPQPPDVSSMDPFGLVGPSQGRSPSFEA
14 | 0.51 ± 0.21 | FGF21 431A: FGF21 N-terminus (A31C, G43C, L98D, L100K, N121D, D127K) fused to peptide 0431 (protein, listed as Homo sapiens) HPIPDSSPLLQFGGQVRQRYLYTDDAQQTECHLEIREDGTVGCAADQSPESLLQLKALKPGVIQILGVKTSRFLCQRPDGALYGSLHFDPEACSFREDLKEDGYNVYQSEAHGLPLHLPGDKSPHRKPAPRGPARFLPLPGLPPALPEPPGILAPQPPDVGSMDPFGLVGPSQGRSPSFEA
15 | 0.19 ± 0.08 | FGF21 481A: modified FGF21 N-terminus fused to peptide 0481 (protein, listed as Homo sapiens) HPIPDSSPLLQFGGQVRQRYLYTDDAQQTECHLEIREDGTVGCAADQSPESLLQLKALKPGVIQILGVKTSRFLCQRPDGALYGSLHFDPEACSFREDLKEDGYNVYQSEAHGLPLHLPGDKSPHRKPAPRGPARFLPLPGLPPALPEPPGILAPQPPDVLSMDPFGLVGPSQGRSPSFEA
16 | 0.21 ± 0.03 | FGF21 486A: modified FGF21 N-terminus fused to peptide 0486 (protein, listed as Homo sapiens) HPIPDSSPLLQFGGQVRQRYLYTDDAQQTECHLEIREDGTVGCAADQSPESLLQLKALKPGVIQILGVKTSRFLCQRPDGALYGSLHFDPEACSFREDLKEDGYNVYQSEAHGLPLHLPGDKSPHRKPAPRGPARFLPLPGLPPALPEPPGILAPQPPDVGSSDPFGLVGPSQGRSPSFEA
